This note sets out measurements from US8715959B2, “Substitution mutant receptors and their use in a nuclear receptor-based inducible gene expression system” (priority 2001, dated 2014).

Positions count from the first letter of the chain named. Names and notes keep the numbering of the source.

The test system of one test is WT full-length EcR. The test is described as follows: In vitro ligand binding assay with 3H-RH2485 and cold competitors, full-length WT EcR (FIG. 1). Further details: species or system Choristoneura fumiferana. Conditions: cold ligand as competitor. The procedure:
(§1) Applicants tested the A110P mutant CfEcR receptor in a steroid and non-steroid ligand binding assay to confirm that steroid binding was eliminated. Briefly, PonA binding activity was determined using an in vitro ligand binding assay (LBA). Steroid ligand binding assay (LBA) was performed using ^3H-PonA (200 Ci/mmol). In vitro translated Gal4/wild-type or A110P mutant CfEcR-DEF and bacterial expressed GST-CfUSP-A/BCDEF were used in the assay. The assay was performed with 8 μL of Gal4/wild-type or A110P mutant CfEcR-DEF, 2.5 uL of GST-CfUSP-A/BCDEF, 1 μL of ^3H-PonA, and 2 μL of unlabeled (“cold”) PonA as competitor in the presence of T buffer [90 mM Tris pH 8.0, 10 μM DTT comprising Complete™ protease inhibitor cocktail used according to the manufacturer's instructions (Boehringer Mannheim)]. The reaction was carried out at room temperature for 1 hour followed by the addition of dextran-coated charcoal (Sigma). The mixture was centrifuged at 7000×g for 10 minutes the amount of ^3H-PonA in the supernatant was measured. The reactions were done in triplicate. The full-length WT EcR or its A110P mutant were also in vitro translated and transcribed using the TNT system (Promega) according to the manufacturer's instructions and tested in in vitro ligand binding assays using 3H-RH2485, with cold 20E or non-steroids (RH2485 and GS™-E) as competitors. In addition, 5 μL of the in vitro translations were assayed for translation efficiency using SDS-PAGE following standard methods (Maniatis, 1989). The ligand binding results for both the wild-type and A110P mutant CfEcR-DEF receptors were calculated and are shown in FIG. 1.

For a further test, the target named is T1, wild-type CfEcR-A/BCDEF (Choristoneura fumiferana, UniProt O77240).
T1 construct: "The full-length spruce budworm Choristoneura fumiferana EcR (“CfEcR-A/BCDEF”); b350 and b353 describe plain full-length EcR translated in vitro
Nature of the test: 3H-RH2485 competition ligand binding, wild-type CfEcR-A/BCDEF with CfUSP.

Test [1] has as its target A110P mutant CfEcR-A/BCDEF (Choristoneura fumiferana, UniProt O77255, A393P). Nature of the test: 3H-RH2485 competition ligand binding, A110P mutant CfEcR-A/BCDEF with CfUSP. The protocol:
The ligand binding affinities of the A110P GAL4/CfEcR mutant were measured by binding ^3H-RH2485 and competing it with different concentrations of cold steroids or non-steroids. Briefly, 3H-RH2485 was bound to in vitro translated full-length CfEcR and bacterially expressed CfUSP and competed with increasing concentrations of cold steroidal or non-steroidal ligands. The reaction was carried out at room temperature for 1 hour followed by addition of activated dextran coated charcoal and centrifugation at 7000×g for 10 minutes at 4° C. The residual ^3H-RH2485 in the supernatant after centrifugation was measured using a scintillation counter. The fraction bound (f bound) values were determined and plotted against the concentration of ligand (in mM).

The subject of another test is A110P mutant CfEcR. Nature of the test: In vitro ligand binding assay with 3H-RH2485 and cold competitors, full-length A110P mutant (FIG. 1). More on the design: species or system Choristoneura fumiferana. Conditions: cold ligand as competitor of 3H-RH2485. The protocol:
as §1

For a further test, the system named is CfEcR-DEF. The test is described as follows: GAL4 fusions of A110 mutants of CfEcR-DEF, reporter transactivation in NIH3T3 cells (FIG. 4). The class given is cell-based, Choristoneura fumiferana. The settings on record: 0.04-25 μM GS™-E or RH-125020, 48 hours. The protocol: Four mutations: A110S, A110P, A110L, and A110M were obtained. These four mutant and wild-type receptors were assayed in NIH3T3 cells.

Test [2] concerns DmEcR-CDEF. Nature of the test: GAL4/DmEcR-CDEF wild-type and mutants, luciferase reporter transactivation in NIH3T3 cells. The class given is cell-based, Drosophila melanogaster. The settings on record: GAL4/DmEcR-CDEF + VP16/LmUSP-EF + pFRLUC, 48 hours. The procedure:
DNAs corresponding to the various switch constructs outlined in Example 1, specifically switches 1.1-1.2, were transfected into mouse NIH3T3 cells (ATCC) as follows. […] Two μl of Superfect™ was mixed with 100 μl of growth medium and 50 ng of either GAL4/wild-type EcR or Gal4/mutant EcR cassette, 50 ng of VP16/LmUSP-EF and 200 ng of pFRLuc were added to the transfection mix. […] The cells were harvested and reporter activity was assayed as described above.
Applicants mutated amino acid residues predicted to be critical for ecdysteroid binding and created GAL4/mutantDmEcR-CDEF cDNA gene expression cassettes as described in Example 1 above using PCR-mediated site-directed mutagenesis. The mutated and the WT cDNAs corresponding to the various switch constructs outlined above in Examples 1.8 and 1.9 were made and tested in reporter assays in NIH3T3 cells as described in Example 2. Each GAL4/DmEcR-CDEF construct, VP16/LmUSP-EF, and pFRLUC were transfected into NIH3T3 cells and the transfected cells were treated with 2.5 μM GS-™E or Ponasterone A. The cells were harvested and the reporter activity was measured at 48 hours after addition of ligand. The fold induction was calculated by dividing reporter activity in the presence of ligand with the reporter activity in the absence of ligand. From the fold induction, percent wild-type activity was calculated for each mutant.
A general note: A reporter such as luciferase makes a cellular process visible.

In test [3] the test system is DmEcR-CDEF. Nature of the test: VP16/DmEcR-CDEF wild-type and mutants, 6xEcRE β-gal reporter transactivation in insect L57 cells. The class given is cell-based, Drosophila melanogaster. The settings on record: for Fold increase over WT, 1 μM 20-hydroxyecdysone / Fold increase over WT, 1 μM GS™-E / reduction in steroid activity: VP16/DmEcR-CDEF; for reduction in steroid activity / steroid activity (summary of Table 14): 20E; for reduction in steroid activity: versus wild-type; for non-steroid activity (summary of Table 14): GS™-E; for non-steroid activity (summary of Table 14) / steroid activity (summary of Table 14): DmEcR mutants. The procedure: The wild-type and mutant DmEcR-CDEF receptors were also used to make VP16/wild-type or mutantDmEcR-CDEF constructs as described in Example 1.10 and 1.11. VP16DmEcR-CDEF and a 6×EcREβ-gal reporter were transfected into L57 cells and the transfected cells were treated with 1 uM 20-hydroxyecdysone (20E) or GS™-E. The cells were harvested, lysed and the reporter activity was measured as described above in Example 6. The fold induction was calculated by dividing reporter activity in the presence of ligand with the reporter activity in the absence of ligand. From the fold induction, percent wild-type activity was calculated for each mutant.

Sequence of A110P mutant CfEcR-A/BCDEF (O77255 entry or part of it A393P): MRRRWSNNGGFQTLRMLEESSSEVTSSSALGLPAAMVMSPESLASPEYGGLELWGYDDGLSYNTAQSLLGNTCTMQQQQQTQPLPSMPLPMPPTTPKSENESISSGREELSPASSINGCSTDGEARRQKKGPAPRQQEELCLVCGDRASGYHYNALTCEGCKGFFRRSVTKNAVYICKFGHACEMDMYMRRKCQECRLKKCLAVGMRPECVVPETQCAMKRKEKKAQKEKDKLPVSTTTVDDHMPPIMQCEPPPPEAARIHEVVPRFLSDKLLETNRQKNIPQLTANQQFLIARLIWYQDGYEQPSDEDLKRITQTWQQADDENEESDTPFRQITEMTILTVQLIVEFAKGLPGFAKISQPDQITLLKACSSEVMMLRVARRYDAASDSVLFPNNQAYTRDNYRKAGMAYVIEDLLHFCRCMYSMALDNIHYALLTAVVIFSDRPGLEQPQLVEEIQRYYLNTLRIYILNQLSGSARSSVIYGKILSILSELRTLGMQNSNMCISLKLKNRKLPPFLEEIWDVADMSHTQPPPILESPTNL
Sequence of A110P mutant CfEcR-A/BCDEF (O76202 whole entry, further chain, the tested form may be a part): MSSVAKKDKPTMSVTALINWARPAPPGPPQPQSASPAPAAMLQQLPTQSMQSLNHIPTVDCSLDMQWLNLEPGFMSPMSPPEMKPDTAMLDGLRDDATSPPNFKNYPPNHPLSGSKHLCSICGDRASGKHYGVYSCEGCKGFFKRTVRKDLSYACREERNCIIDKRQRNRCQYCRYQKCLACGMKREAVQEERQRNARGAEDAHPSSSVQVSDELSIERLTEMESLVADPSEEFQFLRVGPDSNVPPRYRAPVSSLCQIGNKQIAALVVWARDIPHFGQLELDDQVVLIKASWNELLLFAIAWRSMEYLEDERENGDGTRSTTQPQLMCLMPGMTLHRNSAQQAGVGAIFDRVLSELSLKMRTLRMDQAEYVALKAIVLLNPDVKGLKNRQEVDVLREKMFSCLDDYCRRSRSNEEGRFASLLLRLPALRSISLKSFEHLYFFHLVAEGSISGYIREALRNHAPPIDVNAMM

As for `CCc1c(OC)cccc1C(=O)NN(C(=O)c1cc(C)cc(C)c1)C(C)(C)C` [GS ™-E, N-(2-ethyl-3-methoxybenzoyl)-N′-(3,5-dimethylbenzoyl)-N′-tert-butylhydrazine], the “competition with bound 3H-RH2485 (binding to WT full-length EcR)” value (“competition with bound 3H-RH2485” for short) with WT full-length EcR was “able to effectively compete”. The 50% inhibitory concentration (IC50) stood at 0.0853 µM on wild-type CfEcR-A/BCDEF and 0.0129 µM in test [1]. In addition, the “binding of ligand by the A110P mutant” value in the test with A110P mutant CfEcR is recorded as “unaffected”.

With `CC(C)CC[C@@H](O)[C@](C)(O)[C@H]1CC[C@@]2(O)C3=CC(=O)[C@]4(O)C[C@@H](O)[C@@H](O)C[C@]4(C)[C@H]3[C@H](O)C[C@]12C` [Muristerone A, muristeroneA], the half-maximal inhibitory concentration (IC50) is 0.424 µM on wild-type CfEcR-A/BCDEF and more than 1000 µM in test [1].

As for `CC(C)(O)CC[C@@H](O)[C@](C)(O)[C@H]1CC[C@@]2(O)C3=CC(=O)[C@@H]4C[C@@H](O)[C@@H](O)C[C@]4(C)[C@H]3CC[C@]12C` [Mutant 20E, 20-hydroxyecdysone], the “competition with bound 3H-RH2485” value with WT full-length EcR is given as “able to effectively compete”. In the test with A110P mutant CfEcR, the “binding of ligand by the A110P mutant” value is listed as “completely disrupted”.

In the case of `CC(C)CC[C@@H](O)[C@](C)(O)[C@H]1CC[C@@]2(O)C3=CC(=O)[C@@H]4C[C@@H](O)[C@@H](O)C[C@]4(C)[C@H]3CC[C@]12C` [Ponasterone A, ponasterone A], the 50% inhibitory concentration (IC50) is 0.346 µM at wild-type CfEcR-A/BCDEF and more than 1000 µM in test [1].

Turning to `COc1cccc(C(=O)NN(C(=O)c2cc(C)cc(C)c2)C(C)(C)C)c1C` [RH-2485, N′-tert-butyl-N′-(3,5-dimethylbenzoyl)-3-methoxy-2-methylbenzohydrazide], the “competition with bound 3H-RH2485” value in the test with WT full-length EcR was “able to effectively compete”. Besides, the IC50 at wild-type CfEcR-A/BCDEF is 1.8 µM; in test [1], 0.35 µM. The “binding of ligand by the A110P mutant” value with A110P mutant CfEcR is on record as “unaffected”.

`CCc1ccc(C(=O)NN(C(=O)c2cc(C)cc(C)c2)C(C)(C)C)cc1` [RH-5992]: the IC50 turned out to be 0.133 µM on wild-type CfEcR-A/BCDEF and 0.322 µM in test [1].

For `Cc1cc(C)cc(C(=O)N(NC(=O)c2ccc3c(c2C)OCCO3)C(C)(C)C)c1` [RH-125020, N′-tert-butyl-N′-(3,5-dimethylbenzoyl)-3,4-(1,2-ethylenedioxy)-2-methylbenzohydrazide], the IC50 amounted to 0.0101 µM at wild-type CfEcR-A/BCDEF and 0.0257 µM in test [1].

B1: A110S: CfEcR-DEF LBD substitution mutant, Alanine (A) to Serine (S) (protein, listed as Choristoneura fumiferana)
chain: LTANQQFLIARLIWYQDGYEQPSDEDLKRITQTWQQADDENEESDTPFRQITEMTILTVQLIVEFAKGLPGFAKISQPDQITLLKACSSEVMMLRVARRYDAASDSVLFSNNQAYTRDNYRKAGMAYVIEDLLHFCRCMYSMALDNIHYALLTAVVIFSDRPGLEQPQLVEEIQRYYLNTLRIYILNQLSGSARSSVIYGKILSILSELRTLGMQNSNMCISLKLKNRKLPPFLEEIWDV
B1: the “non-steroid reporter activity compared to wild-type receptor” value in the test on CfEcR-DEF was “lower sensitivity and no detectable transactivation at the two lowest concentrations”.

B2: A110L: CfEcR-DEF LBD substitution mutant, Alanine (A) to Leucine (L) (protein, listed as Choristoneura fumiferana)
chain: B1 chain with S110L
For B2, in the test with CfEcR-DEF, the “non-steroid reporter activity compared to wild-type receptor” value was “lower sensitivity and no detectable transactivation at the two lowest concentrations”.

B3: G121R: DmEcR-CDEF LBD substitution mutant, Glycine (G) to Arginine (R) (protein)
chain: LTYNQLAVIYKLIWYQDGYEQPSEEDLRRIMSQPDENESQTDVSFRHITEITILTVQLIVEFAKGLPAFTKIPQEDQITLLKACSSEVMMLRMARRYDHSSDSIFFANNRSYTRDSYKMARMADNIEDLLHFCRQMFSMKVDNVEYALLTAIVIFSDRPGLEKAQLVEAIQSYYIDTLRIYILNRHCGDSMSLVFYAKLLSILTELRTLGNQNAEMCFSLKLKNRKLPKFLEEIWDV
modifications: Drosophila melanogaster
In the case of B3, in the test with DmEcR-CDEF [2], the “Fold increase over WT, 2.5 μM GS™-E” value was 0.0075 fold and the “Fold increase over WT, 2.5 μM Ponasterone A” value is 0.05 fold. In the test with DmEcR-CDEF [3], the “Fold increase over WT, 1 μM 20-hydroxyecdysone” value was determined as 0.5 fold; the “Fold increase over WT, 1 μM GS™-E” value came out at 0.92 fold; the “reduction in steroid activity” value is listed as 50%; the “non-steroid activity (summary of Table 14)” value (“non-steroid activity” for short) is “minimal effect”.

B4: G121L: DmEcR-CDEF LBD substitution mutant, Glycine (G) to Leucine (L) (protein)
chain: B3 chain with R121L
modifications: Drosophila melanogaster
As for B4, in the test on DmEcR-CDEF [2], the “Fold increase over WT, 2.5 μM GS™-E” value is recorded as 0.008 fold and the “Fold increase over WT, 2.5 μM Ponasterone A” value stood at 0.001 fold. In the test with DmEcR-CDEF [3], the “Fold increase over WT, 1 μM 20-hydroxyecdysone” value was determined as 0.09 fold; the “Fold increase over WT, 1 μM GS™-E” value came out at 0.15 fold; the “steroid activity (summary of Table 14)” value was “lost sensitivity”; the “non-steroid activity” value was “lost sensitivity”.

B5: C217A: DmEcR-CDEF LBD substitution mutant, Cysteine (C) to Alanine (A) (protein)
chain: B3 chain with R121G, C217A
modifications: Drosophila melanogaster
Regarding B5, in the test with DmEcR-CDEF [2], the “Fold increase over WT, 2.5 μM GS™-E” value is reported as 0.008 fold and the “Fold increase over WT, 2.5 μM Ponasterone A” value worked out at 0.022 fold. In addition, in the test on DmEcR-CDEF [3], the “Fold increase over WT, 1 μM 20-hydroxyecdysone” value was found to be 0.48 fold; the “Fold increase over WT, 1 μM GS™-E” value amounted to 0.70 fold; the “steroid activity (summary of Table 14)” value is on record as “reduced”; the “non-steroid activity” value is “reduced”.

B6: C217S: DmEcR-CDEF LBD substitution mutant, Cysteine (C) to Serine (S) (protein)
chain: B3 chain with R121G, C217S
modifications: Drosophila melanogaster
Consider B6, for which, in the test on DmEcR-CDEF [2], the “Fold increase over WT, 2.5 μM GS™-E” value came out at 0.014 fold and the “Fold increase over WT, 2.5 μM Ponasterone A” value is on record as 0.0064 fold. Also, in the test on DmEcR-CDEF [3], the “Fold increase over WT, 1 μM 20-hydroxyecdysone” value was found to be 0.39 fold; the “Fold increase over WT, 1 μM GS™-E” value is given as 0.92 fold; the “reduction in steroid activity” value amounted to 61%; the “non-steroid activity” value is “minimal effect”.

The term IC50 denotes the concentration at which inhibition is half-maximal. Low values mean inhibition by little substance, high ones a need for much substance.
